Molecular target: ZMYND8-PBP (93-426aa) (human)
Test: ITC

B1: H3K4me1K14ac peptide (peptide)
chain: ARTKQTARKSTGGKA
modifications: monomethyl-lysine at K4; acetyl-lysine at K14
Kd: ~5.4 µM

— paper PMC4975651 (Molecular cell, 2016)
